According to the supplement of paper PMC12764529:
± gives the half width of the 95% confidence interval.

Experiment: folding stability dG unfold from chymotrypsin proteolysis; higher = more stable
How it was run: (§1)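 Mini-proteins designed to be under 80 residues and free of cysteine were carried in a PA-tagged cDNA display construct and digested with trypsin and with chymotrypsin. Each protease was applied at 11 threefold-diluted concentrations, alongside a no-protease condition, before sequencing. K50 came from Bayesian fitting of the sequencing counts, and unfolding free energy was obtained by comparing it with a sequence-predicted unfolded-state K50 and a shared folded-state K50, for each protease separately or for both together. Designs were retained only if their AlphaFold2 dimer inter-PAE exceeded 15.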

With “SAGGSAGGSAGTKTITLPNGLTLTIKPDEPVTITLVKVDPETNEIVEEKTITVYVKEDDLSAGGSAGGSAGG [r11_497_TrROS_Hall]” as the sequence, how does the “folding stability dG unfold” value read?
Its value is 1.19 ± 0.061 kcal/mol.

With “SAGGPTIRLLVLPNKAEEVAEAIKKEFGAEVKILRVEPYPLPGPDGKVLKPVYLVEIEVKVKDPRLPLSAGG [r13_943_TrMRF]” as the sequence, how does the “folding stability dG unfold” value read?
The value was 1.3 ± 0.14 kcal/mol.

For “SAGGSAGMTPVSEAVVPGPNVTTLTTYRDPSSSALITPVTTTPPDGVPVTTTTLDLGSSTVTLSTTSAGGSA [r15_993_JUSTAS]”, which “folding stability dG unfold” value is on record?
Its value is 0.583 ± 0.21 kcal/mol.

With “SAGMPITVDSEVDPETGTTTYTITMPRGPGEPVTVTIPVTYSDDSVTIEVTASPGVDAAEIKALIEKQSSAG [r5_478_JUSTAS]” as the sequence, how does the “folding stability dG unfold” value read?
The value was 0.34 ± 0.22 kcal/mol.

Which “folding stability dG unfold” value does the source give for “SAGGSAGGSAGGELKLLSVEEGPNETYTVSSSDGKLTVYTKPPDGSWKSTSLPLEPELLSAGGSAGGSAGGS [r10_99_JUSTAS]” here?
Its value is 0.317 ± 0.14 kcal/mol.

For “SAGGSAGGSAGSVLILVSREDLEALLEAGAEIVEVSDDYVLIRVEVPEVEVLDENGKRLDSAGGSAGGSAGG [r11_828_TrROS_Hall]”, which “folding stability dG unfold” value is on record?
The value was 2.43 ± 0.056 kcal/mol.

With “GKYYLVNIVVVNEDNKSLVFPKVFPENDPEKVLEEIKKLLEELGFKAKKLITVFEKLPDGNVLVNAVVEVGS [r1_281_TrMRF]” as the sequence, how does the “folding stability dG unfold” value read?
Its value is 5.63 ± 0.25 kcal/mol.

Which “folding stability dG unfold” value does the source give for “SAGGSAGMELVPLPSPQLVPLTVETTPLPETGTTLVTETSPLGERTVTRVDPAGNVTTLSSTSTSTSAGGSA [r15_790_JUSTAS]” here?
The value was -0.192 ± 0.12 kcal/mol.

With “EKKTLTVLIEVPPEKLEEALARALELAKALPPGQKLEIEIVNEDGTVVRVTVTVDENGEIHIDVEVLPRPPS [r1_350_TrROS_Hall]” as the sequence, how does the “folding stability dG unfold” value read?
Its value is 2.36 ± 0.16 kcal/mol.

Which “folding stability dG unfold” value does the source give for “SAGGSAGGIEAVREALEDMPPGEEKEITIPVPGDPNYYIKFTIRTKGNKIKIPIEIEPMPPGQMSAGGSAGG [r6_393_TrROS]” here?
Its value is 1.63 ± 0.39 kcal/mol.

For “SAGGSAGGSAGEEEVEPPPEVVVRVRFFDKDGKEVLEVEMSLDELRALAEAGLVEVELEPSAGGSAGGSAGG [r11_159_TrROS_Hall]”, which “folding stability dG unfold” value is on record?
Its value is 2.63 ± 0.33 kcal/mol.

For “SAGGSAGGKKKKPPPLVVVKIEITNPNGEKKELTLVFPSLEDAKAAIEALLPPGYTAKVEIKPLSAGGSAGG [r6_289_TrROS_Hall]”, which “folding stability dG unfold” value is on record?
Its value is 3.69 ± 0.37 kcal/mol.

With “SAGGSAGGSAGGGKYRLKLRFTFTNAAGGSSELELEVEIEIPPPPLIAPDADGHWYSLTSAGGSAGGSAGGS [r10_330_TrMRF]” as the sequence, how does the “folding stability dG unfold” value read?
Its value is 5.31 ± 0.65 kcal/mol.

For “SADKIKIPPGFQIFGPNGQPIRPGTEVEVEDIEPHPGGGEFMFEVKIKSPDDGEEHNWPIMIRFPPAGKSAG [r14_258_TrROS]”, which “folding stability dG unfold” value is on record?
The value was -0.395 ± 0.24 kcal/mol.

For “SAGGDPAPLEVDIEMDPDNGRIRIEIRAGGSKVIYEYEIPLDGYEFKVKIIVVDGKIVIEIEFEMPDSAGGS [r16_631_TrROS]”, which “folding stability dG unfold” value is on record?
Its value is 3.81 ± 0.27 kcal/mol.

Which “folding stability dG unfold” value does the source give for “SEEIAKKIADELKKAGYEVVKVEVTYDKETKKVTIKIVVKDKKTNEYYKITIKLNEETGEIVEVKIEKLPSA [r9_814_TrROS_Hall]” here?
The value was 4.14 ± 0.41 kcal/mol.

With “SAGGKRKIMIPMDEMEEKFGIPPNQTVEELAKYINPNYKIEVDNVRYEKDENGKERYWVKVEIEPPKDSAGG [r13_723_TrROS]” as the sequence, how does the “folding stability dG unfold” value read?
The value was -0.136 ± 0.61 kcal/mol.

Experiment: folding stability dG unfold (combined trypsin and chymotrypsin); higher = more stable
How it was run: as §1

With “SAGGFKIKNIDVERNPDNGWRTITVEFPGNGWKFQIQVPPDGGVKYEWYNNGEPQTYTIPADDLKDLSAGGS [r8_238_TrROS]” as the sequence, how does the “folding stability dG unfold” value read?
The value was 1.2 ± 0.08 kcal/mol.

Which “folding stability dG unfold” value does the source give for “SAGAKVEIEFEGNKVTAKIEFGEGTVTVEGEVKLLPDGSALFKPKIYKDGKKIGEFTVLLDLPEGAEVLSAG [r5_221_TrMRF]” here?
The value was 1.84 ± 0.16 kcal/mol.

Which “folding stability dG unfold” value does the source give for “SAGGSAGGSAPPYKYVQIELWIPGPIEEIADELQDNFGIRSIDVKRDPENGWVRADIYFQFPSAGGSAGGSA [r18_275_TrROS]” here?
Its value is 2.26 ± 0.14 kcal/mol.

With “SAGSSTTETFTHPDGSVVTVTEEELPDGSYRVTSVSYEATPDGTVSALLRKPDGTIITVDSLEELFALESAG [r5_618_JUSTAS]” as the sequence, how does the “folding stability dG unfold” value read?
The value was 1.34 ± 0.083 kcal/mol.

For “SAGGSAGGSAGGEKKWIFMVSFRHPDGKERKFTFPWNDLEEIKENLPGIDDVEIEWMPMSAGGSAGGSAGGS [r10_437_TrROS]”, which “folding stability dG unfold” value is on record?
The value was 0.773 ± 0.19 kcal/mol.

For “SAGGSAGGSAGMKVTIEENEETGKFTIKVKTEDGEEKTIEIPKENLEEILAKLPPNVEIISAGGSAGGSAGG [r11_569_TrROS_Hall]”, which “folding stability dG unfold” value is on record?
Its value is 2.14 ± 0.17 kcal/mol.

With “MFKPGTKVTFGDKTVEVPEGDELYIFEGKVFGTSEVEAVLENMSDDAVGYKLVVEDETGKIVKVEEFVFKPS [r1_304_TrMRF]” as the sequence, how does the “folding stability dG unfold” value read?
The value was -0.406 ± 0.43 kcal/mol.

For “SAGGSAGGSAGGSGMTLSVTVLEEKPERLPNGGTIITRTVRIPETGEVIEEVTYEPGALSAGGSAGGSAGGS [r4_94_JUSTAS]”, which “folding stability dG unfold” value is on record?
Its value is -0.092 ± 0.085 kcal/mol.

Which “folding stability dG unfold” value does the source give for “SASFRLEFPGVRIEVEVEEVEVFPRPDGRPYRLYRAKIRFLDVPEELQALDFPFSLDDEIEVLFLVSLDSAG [r14_942_TrMRF]” here?
The value was 4.18 ± 0.12 kcal/mol.

Which “folding stability dG unfold” value does the source give for “SAGGSAGGSAGTKTITLPNGLTLTIKPDEPVTITLVKVDPETNEIVEEKTITVYVKEDDLSAGGSAGGSAGG [r11_497_TrROS_Hall]” here?
Its value is 1.2 ± 0.076 kcal/mol.

For “SAGGPTIRLLVLPNKAEEVAEAIKKEFGAEVKILRVEPYPLPGPDGKVLKPVYLVEIEVKVKDPRLPLSAGG [r13_943_TrMRF]”, which “folding stability dG unfold” value is on record?
Its value is 1.29 ± 0.17 kcal/mol.

For “SAGGSAGMTPVSEAVVPGPNVTTLTTYRDPSSSALITPVTTTPPDGVPVTTTTLDLGSSTVTLSTTSAGGSA [r15_993_JUSTAS]”, which “folding stability dG unfold” value is on record?
Its value is 0.97 ± 0.082 kcal/mol.

With “SAGMPITVDSEVDPETGTTTYTITMPRGPGEPVTVTIPVTYSDDSVTIEVTASPGVDAAEIKALIEKQSSAG [r5_478_JUSTAS]” as the sequence, how does the “folding stability dG unfold” value read?
The value was 0.597 ± 0.11 kcal/mol.

Which “folding stability dG unfold” value does the source give for “SAGGSAGGSAGGELKLLSVEEGPNETYTVSSSDGKLTVYTKPPDGSWKSTSLPLEPELLSAGGSAGGSAGGS [r10_99_JUSTAS]” here?
The value was 0.194 ± 0.1 kcal/mol.

With “SAGGSAGGSAGSVLILVSREDLEALLEAGAEIVEVSDDYVLIRVEVPEVEVLDENGKRLDSAGGSAGGSAGG [r11_828_TrROS_Hall]” as the sequence, how does the “folding stability dG unfold” value read?
The value was 2.21 ± 0.077 kcal/mol.

For “GKYYLVNIVVVNEDNKSLVFPKVFPENDPEKVLEEIKKLLEELGFKAKKLITVFEKLPDGNVLVNAVVEVGS [r1_281_TrMRF]”, which “folding stability dG unfold” value is on record?
Its value is 5.57 ± 0.3 kcal/mol.

For “SAGGSAGMELVPLPSPQLVPLTVETTPLPETGTTLVTETSPLGERTVTRVDPAGNVTTLSSTSTSTSAGGSA [r15_790_JUSTAS]”, which “folding stability dG unfold” value is on record?
Its value is -0.226 ± 0.12 kcal/mol.

For “EKKTLTVLIEVPPEKLEEALARALELAKALPPGQKLEIEIVNEDGTVVRVTVTVDENGEIHIDVEVLPRPPS [r1_350_TrROS_Hall]”, which “folding stability dG unfold” value is on record?
Its value is 2.23 ± 0.16 kcal/mol.

For “SAGGSAGGIEAVREALEDMPPGEEKEITIPVPGDPNYYIKFTIRTKGNKIKIPIEIEPMPPGQMSAGGSAGG [r6_393_TrROS]”, which “folding stability dG unfold” value is on record?
The value was 1.08 ± 0.38 kcal/mol.

For “SAGGSAGGSAGMYTVSPVGSGGGGSMIRIENPETGEVIELDFDSEEEAAAAAEELKEKLASAGGSAGGSAGG [r11_848_JUSTAS]”, which “folding stability dG unfold” value is on record?
The value was -0.22 ± 0.17 kcal/mol.

For “SITASAKHPEEAIELAEKLKKELEKLLGPDTKVPITLYDDKGNPATFPITLKKKKPKVIYDPEKGLYRDESA [r9_596_TrMRF]”, which “folding stability dG unfold” value is on record?
The value was -0.332 ± 0.55 kcal/mol.

With “SAGGSAGGSTPPLTTETEAVIEIEGGLYSVKVTQLPPDETLMTIPANGMIIRETPDKIEIRPESAGGSAGGS [r12_737_JUSTAS]” as the sequence, how does the “folding stability dG unfold” value read?
Its value is less than -1 kcal/mol.

Which “folding stability dG unfold” value does the source give for “SAGGSAGGSKIPIHIWVPPGGSPKKAKERIRRYIREQMPPGNKDMPIDDIKIDVHVMPPGQPVSAGGSAGGS [r12_384_TrROS]” here?
The value was less than -1 kcal/mol.

With “SAGGSAGGSAGMLLLTFPERGISYEIKLGDKEEEREADPEEVEKLIAELPNYEVKEVELLSAGGSAGGSAGG [r11_57_JUSTAS]” as the sequence, how does the “folding stability dG unfold” value read?
Its value is 0.288 ± 0.26 kcal/mol.

With “SPAVRPLSAEFYDPRYTVEAPVYESEEGEPVLNIRFLVPEYELEIPFPLEDPEAVFESFAEDGVSLTLTDSA [r9_384_TrMRF]” as the sequence, how does the “folding stability dG unfold” value read?
Its value is -0.723 ± 0.17 kcal/mol.

With “SAGGSAGGSAGTVIYIDPETDMARVLVPDADGVLVDERAVPPDQLPDVLSQGNFTVVPAPSAGGSAGGSAGG [r11_159_TrMRF]” as the sequence, how does the “folding stability dG unfold” value read?
The value was -0.943 ± 0.84 kcal/mol.
